This passage reports binding result and Kd results from patent US20260317428 (published 2026).

A value given as a limit tells only on which side of the number the result lay.

Assay [1] deals with T1, human FGFR3b (alpha IIIb) (human, UniProt P22607).
T1 chain: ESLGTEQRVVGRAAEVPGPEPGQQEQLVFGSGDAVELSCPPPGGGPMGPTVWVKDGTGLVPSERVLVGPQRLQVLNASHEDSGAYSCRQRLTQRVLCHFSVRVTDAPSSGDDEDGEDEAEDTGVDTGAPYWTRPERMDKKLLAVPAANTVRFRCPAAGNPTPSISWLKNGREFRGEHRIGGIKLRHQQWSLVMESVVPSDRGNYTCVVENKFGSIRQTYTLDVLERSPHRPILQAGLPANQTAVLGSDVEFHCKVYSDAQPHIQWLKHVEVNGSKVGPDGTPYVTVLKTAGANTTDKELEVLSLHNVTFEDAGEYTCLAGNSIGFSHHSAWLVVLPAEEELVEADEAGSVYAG
Put plainly: ELISA.

Assay [2] has as its target T2, human FGFR2b ECD (human, UniProt P21802).
T2 chain: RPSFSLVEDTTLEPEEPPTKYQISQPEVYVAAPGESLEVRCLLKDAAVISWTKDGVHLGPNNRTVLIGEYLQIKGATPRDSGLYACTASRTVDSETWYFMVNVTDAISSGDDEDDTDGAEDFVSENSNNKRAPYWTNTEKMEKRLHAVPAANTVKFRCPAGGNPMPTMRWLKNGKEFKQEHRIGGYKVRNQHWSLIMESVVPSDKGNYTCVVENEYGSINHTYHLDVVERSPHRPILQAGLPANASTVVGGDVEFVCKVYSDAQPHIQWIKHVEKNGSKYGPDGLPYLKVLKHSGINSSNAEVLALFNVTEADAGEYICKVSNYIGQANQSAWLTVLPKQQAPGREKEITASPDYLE
Put plainly: BLI. Background: Biolayer interferometry detects binding as a change in optical thickness at a sensor tip.

The target of assay [3] is human FGFR4 (CD334) (human, UniProt P22455). Put plainly: ELISA. (In general: In an ELISA, binding on a coated surface is turned into a signal by an enzyme label.)
human FGFR4 (CD334), sequence (P22455 22-369): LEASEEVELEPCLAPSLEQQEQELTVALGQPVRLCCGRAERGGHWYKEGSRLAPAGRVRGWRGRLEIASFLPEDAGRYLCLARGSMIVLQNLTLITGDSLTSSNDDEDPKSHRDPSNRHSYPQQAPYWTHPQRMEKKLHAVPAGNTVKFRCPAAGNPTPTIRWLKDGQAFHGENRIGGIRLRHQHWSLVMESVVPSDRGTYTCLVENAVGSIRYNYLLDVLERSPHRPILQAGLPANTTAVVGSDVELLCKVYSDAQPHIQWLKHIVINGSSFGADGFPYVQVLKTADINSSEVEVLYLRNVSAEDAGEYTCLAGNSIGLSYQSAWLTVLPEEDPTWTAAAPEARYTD
Assay [4] deals with T3, human FGFR1c (FGFR1/CD331) (human, UniProt P11362).
T3 chain: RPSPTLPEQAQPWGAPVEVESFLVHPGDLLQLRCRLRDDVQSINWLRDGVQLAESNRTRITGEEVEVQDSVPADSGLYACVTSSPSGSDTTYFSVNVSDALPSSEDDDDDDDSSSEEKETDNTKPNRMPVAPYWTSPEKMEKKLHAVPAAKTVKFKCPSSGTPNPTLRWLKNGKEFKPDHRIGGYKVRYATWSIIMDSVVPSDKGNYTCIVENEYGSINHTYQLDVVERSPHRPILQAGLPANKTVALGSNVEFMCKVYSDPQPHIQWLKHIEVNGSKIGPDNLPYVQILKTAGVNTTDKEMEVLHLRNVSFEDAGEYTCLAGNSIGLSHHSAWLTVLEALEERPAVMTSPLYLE
The assay is described as follows: ELISA.

Assay [5] has as its target human FGFR2c (alpha IIIc) (human, UniProt P21802). Put plainly: ELISA.
Assay [6] addresses FGFR2IIIc on HEK293 cells (human, UniProt P21802). The assay is described as follows: FACS. (Flow cytometry measures light scatter and fluorescence of single cells or particles in a stream.)
The target of assay [7] is T4, human FGFR1b (alpha IIIb) (human, UniProt P11362).
T4 chain: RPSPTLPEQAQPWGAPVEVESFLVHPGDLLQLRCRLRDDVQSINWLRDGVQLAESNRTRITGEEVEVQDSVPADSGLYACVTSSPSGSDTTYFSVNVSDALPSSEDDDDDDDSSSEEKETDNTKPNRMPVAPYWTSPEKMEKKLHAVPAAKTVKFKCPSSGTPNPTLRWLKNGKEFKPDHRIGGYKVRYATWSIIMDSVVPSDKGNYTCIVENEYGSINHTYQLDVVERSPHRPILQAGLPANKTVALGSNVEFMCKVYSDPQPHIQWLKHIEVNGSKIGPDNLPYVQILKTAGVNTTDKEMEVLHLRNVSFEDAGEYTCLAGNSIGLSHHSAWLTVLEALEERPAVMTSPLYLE
Put plainly: ELISA.

In assay [8] the target is T5, human FGFR3c (alpha IIIc) (human, UniProt P22607).
T5 chain: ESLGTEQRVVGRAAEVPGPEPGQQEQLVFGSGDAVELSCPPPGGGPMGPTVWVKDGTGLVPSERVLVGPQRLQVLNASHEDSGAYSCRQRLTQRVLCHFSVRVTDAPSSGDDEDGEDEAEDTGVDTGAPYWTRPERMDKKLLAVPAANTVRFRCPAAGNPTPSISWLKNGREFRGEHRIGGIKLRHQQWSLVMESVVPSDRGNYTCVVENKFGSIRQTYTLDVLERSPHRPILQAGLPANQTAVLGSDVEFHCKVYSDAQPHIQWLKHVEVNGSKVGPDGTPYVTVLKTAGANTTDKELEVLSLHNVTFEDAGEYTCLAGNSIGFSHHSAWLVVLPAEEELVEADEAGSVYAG
The assay is described as follows: ELISA.

B1: humAbA1 (antibody, V domains shown)
VH: QVQLVQSGAEVKKPGASVKVSCKASGYTFTSYNMHWVRQAPGQGLEWMGSIYPENGDTSYNQKFQDRVTLTRDTSTSTVYMELSSLRSEDTAVYYCARPFDYWGQGTLVTVSS
VL: DIQMTQSPSSLSASVGDRVTITCQASQSVGNNLAWYQQKPGKAPKLLIYYASNLYTGVPSRFSGSGSGTDFTFTISSLQPEDIATYYCQQFYSSPYTFGQGTKLEIKR
The term Kd denotes the free concentration of one partner at which half of the binding sites on the other are occupied at equilibrium, for simple one-to-one binding. Read a low Kd as a tighter complex. With B1, the binding result in assay [1], in assay [3], in assay [4], in assay [5], in assay [6] and in assay [7] was “no binding” each time. For the same molecule, in assay [8], the binding result is given as “no binding”. In assay [2], this molecule displayed a Kd of less than 1 nM.

B2: mAb1 (antibody, V domains shown)
VH: QAYLQQSGAELVRPGASVKMSCKASGYTFTSYNMHWVKQTPRQGLEWIGSIYPENGDTSYNQKFRDKATLTVDKSSSTAYMQLSSLTSEDSAVYFCARPFDYWGQGTTLTVSS
VL: SIVMTQTPKFLPISAGDRVTMTCKASQSVGNNVAWYQQKPGQSPKLLIYYASNRYTGVPDRFTGSGSGTDFTFTISSVQVEDLAVYFCQQFYSSPYTFGSGTKLEIK
In the case of B2, the binding result in assay [1], in assay [3], in assay [4], in assay [5], in assay [6] and in assay [7] was “no binding” in each case. Moreover, the binding result in assay [8] is listed as “no binding”.
